Results as given in US20220177587A1, “METHODS AND USES OF VARIANT CD80 FUSION PROTEINS AND RELATED CONSTRUCTS” (Alpine Immune Sciences, Inc., priority 2018, published 2022).

What was measured:
CD28 (human) [1] = biological target: CD28 (human) (UniProt P10747); test: flow cytometry, Jurkat cells (CD28)
human PD-L1 (human) [2] = biological target: human PD-L1 (human) (UniProt Q9NZQ7); test: flow cytometry, CHO cells stably expressing PD-L1
human CTLA-4 (human) = human CTLA-4 (human) (UniProt P16410); test: flow cytometry, CHO cells expressing huCTLA4
human PD-L1 (human) [3] = biological target: human PD-L1 (human) (UniProt Q9NZQ7); test: flow cytometry, CHO cells expressing huPD-L1
CD28 (human) [4] = biological target: CD28 (human) (UniProt P10747); test: flow cytometry, Jurkat/IL2 reporter cells (CD28)
CD28 (human) [5] = biological target: CD28 (human) (UniProt P10747); test: flow cytometry, Jurkat/IL2 reporter cells (endogenous CD28)

Chain of human PD-L1 (human) (Q9NZQ7 19-290): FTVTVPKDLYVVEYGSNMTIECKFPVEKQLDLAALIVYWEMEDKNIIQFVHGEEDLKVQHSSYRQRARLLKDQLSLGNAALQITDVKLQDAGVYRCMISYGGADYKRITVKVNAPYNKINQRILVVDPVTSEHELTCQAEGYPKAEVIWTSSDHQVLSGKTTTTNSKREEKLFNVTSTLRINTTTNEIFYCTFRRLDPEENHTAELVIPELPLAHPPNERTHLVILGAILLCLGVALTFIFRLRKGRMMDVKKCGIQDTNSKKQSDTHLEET
Chain of human CTLA-4 (human) (P16410 36-223): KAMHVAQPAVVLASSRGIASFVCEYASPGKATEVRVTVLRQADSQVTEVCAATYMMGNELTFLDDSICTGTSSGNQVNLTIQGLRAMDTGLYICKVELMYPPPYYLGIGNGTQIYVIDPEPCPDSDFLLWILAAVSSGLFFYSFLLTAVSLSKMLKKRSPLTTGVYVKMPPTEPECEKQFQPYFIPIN

Row | Binder | MFI at 33.3 nM (human CTLA-4 (human)) [MFI] | MFI at 33.3 nM (human PD-L1 (human) [3]) [MFI] | MFI at 33.3 nM (CD28 (human) [4]) [MFI] | further results
1 | CD80 ECD (SEQ ID NO:2)-Fc (inert) with GSG4S linker (Fc fusion) VIHVTKEVKEVATLSCGHNVSVEELAQTRIYWQKEKKMVLTMMSGDMNIWPEYKNRTIFDITNNLSIVILALRPSDEGTYECVVLKYEKDAFKREHLAEVTLSVKADFPTPSISDFEIPTSNIRRIICSTSGGFPEPHLSWLENGEELNAINTTVSQDPETELYAVSSKLDFNMTTNHSFMCLIKYGHLRVNQTFNWNTTKQEHFPDNGSGGGGS |  |  |  | MFI at 33.3 nM (CD28 (human) [1]): 37 MFI; MFI at 33.3 nM (human PD-L1 (human) [2]): 35 MFI
2 | variant CD80 IgV-Fc E35D/D46E/M47V/A71D (Fc fusion) VIHVTKEVKEVATLSCGHNVSVEELAQTRIYWQKDKKMVLTMMSGEVNIWPEYKNRTIFDITNNLSIVILDLRPSDEGTYECVVLKYEKDAFKREHLAEVTLSVKAD |  | 549 |  | 
3 | variant CD80 IgV-Fc E35D/T41S/M43I/A71G/D90G (Fc fusion) VIHVTKEVKEVATLSCGHNVSVEELAQTRIYWQKDKKMVLSMISGDMNIWPEYKNRTIFDITNNLSIVILGLRPSDEGTYECVVLKYEKGAFKREHLAEVTLSVKAD | 208000 |  |  | 
4 | variant CD80 IgV-Fc E35D/M47V/A71G (Fc fusion) VIHVTKEVKEVATLSCGHNVSVEELAQTRIYWQKDKKMVLTMMSGDVNIWPEYKNRTIFDITNNLSIVILGLRPSDEGTYECVVLKYEKDAFKREHLAEVTLSVKAD |  | 36200 | 6360 | 
5 | variant CD80 IgV-Fc E35D/K37E/M47V/N48D/L85Q/D90N (Fc fusion) VIHVTKEVKEVATLSCGHNVSVEELAQTRIYWQKDKEMVLTMMSGDVDIWPEYKNRTIFDITNNLSIVILALRPSDEGTYECVVQKYEKNAFKREHLAEVTLSVKAD |  | 26500 |  | 
6 | variant CD80 IgV-Fc E35D/T41S/M43I/M47L/A71G (Fc fusion) VIHVTKEVKEVATLSCGHNVSVEELAQTRIYWQKDKKMVLSMISGDLNIWPEYKNRTIFDITNNLSIVILGLRPSDEGTYECVVLKYEKDAFKREHLAEVTLSVKAD | 209000 |  | 3100 | 
7 | variant CD80 IgV-Fc E35D/D46V/M47L/V68M/L85Q/E88D (Fc fusion) VIHVTKEVKEVATLSCGHNVSVEELAQTRIYWQKDKKMVLTMMSGVLNIWPEYKNRTIFDITNNLSIMILALRPSDEGTYECVVQKYDKDAFKREHLAEVTLSVKAD |  | 137000 |  | 
8 | variant CD80 IgV-Fc E35D/M47V/A71G/E88D (Fc fusion) VIHVTKEVKEVATLSCGHNVSVEELAQTRIYWQKDKKMVLTMMSGDVNIWPEYKNRTIFDITNNLSIVILGLRPSDEGTYECVVLKYDKDAFKREHLAEVTLSVKAD | 212000 | 37100 | 6240 | 
9 | variant CD80 IgV-Fc E35D/M47L/A71G/L85Q (Fc fusion) VIHVTKEVKEVATLSCGHNVSVEELAQTRIYWQKDKKMVLTMMSGDLNIWPEYKNRTIFDITNNLSIVILGLRPSDEGTYECVVQKYEKDAFKREHLAEVTLSVKAD |  |  | 1440 | 
10 | variant CD80 IgV-Fc E35D/M47V/N48T/L85Q (Fc fusion) VIHVTKEVKEVATLSCGHNVSVEELAQTRIYWQKDKKMVLTMMSGDVTIWPEYKNRTIFDITNNLSIVILALRPSDEGTYECVVQKYEKDAFKREHLAEVTLSVKAD |  | 35500 | 692 | 
11 | variant CD80 IgV-Fc E35D/D46E/M47V/A71D/D90G (Fc fusion) VIHVTKEVKEVATLSCGHNVSVEELAQTRIYWQKDKKMVLTMMSGEVNIWPEYKNRTIFDITNNLSIVILDLRPSDEGTYECVVLKYEKGAFKREHLAEVTLSVKAD | 275000 | 32400 |  | 
12 | variant CD80 IgV-Fc (inert) H18Y/A26P/E35D/M47V/V68M/A71G (Fc fusion) VIHVTKEVKEVATLSCGYNVSVEELPQTRIYWQKDKKMVLTMMSGDVNIWPEYKNRTIFDITNNLSIMILGLRPSDEGTYECVVLKYEKDAFKREHLAEVTLSVKAD |  |  |  | MFI at 33.3 nM (CD28 (human) [1]): 6910 MFI; MFI at 33.3 nM (human PD-L1 (human) [2]): 51500 MFI
13 | variant CD80 IgV-Fc E35D/A71G (Fc fusion) VIHVTKEVKEVATLSCGHNVSVEELAQTRIYWQKDKKMVLTMMSGDMNIWPEYKNRTIFDITNNLSIVILGLRPSDEGTYECVVLKYEKDAFKREHLAEVTLSVKAD | 184000 | 34100 |  | 

Second part, led by results:

Row | MFI at 33.3 nM (human CTLA-4 (human)) [MFI] | MFI at 33.3 nM (human PD-L1 (human) [3]) [MFI] | MFI at 33.3 nM (CD28 (human) [4]) [MFI] | Binder | further results
14 | 152000 | 43800 | 7270 | variant CD80 IgV-Fc V22L/Q27H/E35D/M47I/A71G (Fc fusion) VIHVTKEVKEVATLSCGHNVSLEELAHTRIYWQKDKKMVLTMMSGDINIWPEYKNRTIFDITNNLSIVILGLRPSDEGTYECVVLKYEKDAFKREHLAEVTLSVKAD | 
15 | 261000 |  |  | variant CD80 IgV-Fc H18Y/E35D/N48K (Fc fusion) VIHVTKEVKEVATLSCGYNVSVEELAQTRIYWQKDKKMVLTMMSGDMKIWPEYKNRTIFDITNNLSIVILALRPSDEGTYECVVLKYEKDAFKREHLAEVTLSVKAD | 
16 |  | 39100 |  | variant CD80 IgV-Fc Q33K/E35D/M47V/K89E/K93R (Fc fusion) VIHVTKEVKEVATLSCGHNVSVEELAQTRIYWKKDKKMVLTMMSGDVNIWPEYKNRTIFDITNNLSIVILALRPSDEGTYECVVLKYEEDAFRREHLAEVTLSVKAD | MFI at 33.3 nM (CD28 (human) [5]): 276 MFI
17 | 231000 | 52400 | 3540 | variant CD80 IgV-Fc H18Y/A26E/E35D/M47L/L85Q/D90G (Fc fusion) VIHVTKEVKEVATLSCGYNVSVEELEQTRIYWQKDKKMVLTMMSGDLNIWPEYKNRTIFDITNNLSIVILALRPSDEGTYECVVQKYEKGAFKREHLAEVTLSVKAD | 
18 | 437000 | 1350 |  | variant CD80 IgV-Fc V22A/E35D/V68E/A71D (Fc fusion) VIHVTKEVKEVATLSCGHNVSAEELAQTRIYWQKDKKMVLTMMSGDMNIWPEYKNRTIFDITNNLSIEILDLRPSDEGTYECVVLKYEKDAFKREHLAEVTLSVKAD | MFI at 33.3 nM (CD28 (human) [5]): 14000 MFI
19 |  | 44400 | 2840 | variant CD80 IgV-Fc E35D/T41S/M43I/M47V/A71G (Fc fusion) VIHVTKEVKEVATLSCGHNVSVEELAQTRIYWQKDKKMVLSMISGDVNIWPEYKNRTIFDITNNLSIVILGLRPSDEGTYECVVLKYEKDAFKREHLAEVTLSVKAD | 
20 |  | 5800 | 88.1 | variant CD80 IgV-Fc M47L/L85Q (Fc fusion) VIHVTKEVKEVATLSCGHNVSVEELAQTRIYWQKEKKMVLTMMSGDLNIWPEYKNRTIFDITNNLSIVILALRPSDEGTYECVVQKYEKDAFKREHLAEVTLSVKAD | 
21 | 256000 |  | 542 | variant CD80 IgV-Fc V22D/E35D/M47L/L85Q (Fc fusion) VIHVTKEVKEVATLSCGHNVSDEELAQTRIYWQKDKKMVLTMMSGDLNIWPEYKNRTIFDITNNLSIVILALRPSDEGTYECVVQKYEKDAFKREHLAEVTLSVKAD | 
22 |  |  | 527 | variant CD80 IgV-Fc V22D/E35D/M47L/L70M/L97Q (Fc fusion) VIHVTKEVKEVATLSCGHNVSDEELAQTRIYWQKDKKMVLTMMSGDLNIWPEYKNRTIFDITNNLSIVIMALRPSDEGTYECVVLKYEKDAFKREHQAEVTLSVKAD | 
